From US20180222952A1 (NEW YORK UNIVERSITY, published 2018) come the findings set out here.

T1: Recombinant sortilin (R&D Systems Cat. No. 3154-ST-050) (UniProt Q99523 78-755, biotin-labeled in the solid phase binding assay of FIG. 11; unlabeled in SPR)
T1 construct: also called biotin-labeled Sortilin
T1 sequence (looked up): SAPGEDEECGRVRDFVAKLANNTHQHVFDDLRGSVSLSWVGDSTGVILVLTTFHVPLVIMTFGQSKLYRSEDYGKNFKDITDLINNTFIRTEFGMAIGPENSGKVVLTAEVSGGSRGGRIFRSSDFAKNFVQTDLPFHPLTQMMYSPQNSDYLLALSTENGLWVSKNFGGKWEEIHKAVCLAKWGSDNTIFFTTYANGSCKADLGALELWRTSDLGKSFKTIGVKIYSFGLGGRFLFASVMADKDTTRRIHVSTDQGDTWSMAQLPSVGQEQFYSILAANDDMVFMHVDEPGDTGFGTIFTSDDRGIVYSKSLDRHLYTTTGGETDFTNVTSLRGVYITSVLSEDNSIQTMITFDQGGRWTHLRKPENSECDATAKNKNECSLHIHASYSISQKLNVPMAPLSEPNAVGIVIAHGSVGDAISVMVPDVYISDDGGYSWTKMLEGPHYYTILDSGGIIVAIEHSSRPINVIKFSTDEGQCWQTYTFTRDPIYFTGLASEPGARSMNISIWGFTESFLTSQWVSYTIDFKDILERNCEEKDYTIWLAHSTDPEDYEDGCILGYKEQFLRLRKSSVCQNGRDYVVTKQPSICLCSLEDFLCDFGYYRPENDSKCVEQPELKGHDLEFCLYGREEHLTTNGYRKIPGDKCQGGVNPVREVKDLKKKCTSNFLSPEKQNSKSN

T2: RFP-fused GBA (encoded by pDsRed-GBA) (UniProt P04062 40-536)
T2 construct: also called RFP fused GCase; GCase; not shown: RFP (DsRed) tag
T2 sequence (looked up): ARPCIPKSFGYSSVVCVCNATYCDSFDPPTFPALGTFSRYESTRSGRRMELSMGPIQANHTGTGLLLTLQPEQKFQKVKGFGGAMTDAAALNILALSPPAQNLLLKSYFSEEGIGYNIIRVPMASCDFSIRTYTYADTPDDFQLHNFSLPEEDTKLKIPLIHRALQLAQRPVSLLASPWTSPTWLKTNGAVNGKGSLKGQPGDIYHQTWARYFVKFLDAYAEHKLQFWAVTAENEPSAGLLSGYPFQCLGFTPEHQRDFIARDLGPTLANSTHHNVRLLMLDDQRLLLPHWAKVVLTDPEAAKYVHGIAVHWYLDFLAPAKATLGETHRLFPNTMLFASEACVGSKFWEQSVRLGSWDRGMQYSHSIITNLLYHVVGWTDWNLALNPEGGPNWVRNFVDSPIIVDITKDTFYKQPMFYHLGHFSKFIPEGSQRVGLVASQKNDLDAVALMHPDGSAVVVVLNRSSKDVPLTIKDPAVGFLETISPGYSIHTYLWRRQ

B1: GFP fused Pcgin/ND7 deletion mutant lacking aa535-539 (RDNRQ) (other)
chain: EKEVVSAQPATFLARSPHVGVKDVECGEGHFCHDNQTCCGWACCPYRQGVCCADRRHCCPAGFRCAARGTKCLRREAPRWDAPLRDPALRQLL
notes: also called ΔRDNRQ; ΔDNRQ; not shown: GFP tag
B2: Recombinant His-tag PGRN protein (full length progranulin) (ligand)
chain: TRCPDGQFCPVACCLDPGGASYSCCRPLLDKWPTTLSRHLGGPCQVDAHCSAGHSCIFTVSGTSSCCPFPEAVACGDGHHCCPRGFHCSADGRSCFQRSGNNSVGAIQCPDSQFECPDFSTCCVMVDGSWGCCPMPQASCCEDRVHCCPHGAFCDLVHTRCITPTGTHPLAKKLPAQRTNRAVALSSSVMCPDARSRCPDGSTCCELPSGKYGCCPMPNATCCSDHLHCCPQDTVCDLIQSKCLSKENATTDLLTKLPAHTVGDVKCDMEVSCPDGYTCCRLQSGAWGCCPFTQAVCCEDHIHCCPAGFTCDTQKGTCEQGPHQVPWMEKAPAHLSLPDPQALKRDVPCDNVSSCPSSDTCCQLTSGEWGCCPIPEAVCCSDHQHCCPQGYTCVAEGQCQRGSEIVAGLEKMPARRASLSHPRDIGCDQHTSCPVGQTCCPSLGGSWACCQLPHAVCCEDRQHCCPAGYTCNVKARSCEKEVVSAQPATFLARSPHVGVKDVECGEGHFCHDNQTCCRDNRQGWACCPYRQGVCCADRRHCCPAGFRCAARGTKCLRREAPRWDAPLRDPALRQLL
notes: also called rPGRN; His-tagged PGRN; not shown: His tag
B3: GFP fused Pcgin/ND7 deletion mutant lacking aa523-534 (other)
chain: EKEVVSAQPATFLARSPHVGVKDVECGRDNRQGWACCPYRQGVCCADRRHCCPAGFRCAARGTKCLRREAPRWDAPLRDPALRQLL
notes: not shown: GFP tag
B4: Recombinant Pcgin, His-tagged, expressed in bacteria (other)
chain: EKEVVSAQPATFLARSPHVGVKDVECGEGHFCHDNQTCCRDNRQGWACCPYRQGVCCADRRHCCPAGFRCAARGTKCLRREAPRWDAPLRDPALRQLL
notes: also called ND7; PGRN ND7 fragment; not shown: His tag
B5: Recombinant LIMP2 (lysosomal integral membrane protein 2; R&D Systems Cat. No. 1966-LM-050) (receptor, UniProt Q14108 27-432, looked up)
chain: RVFQKAVDQSIEKKIVLRNGTEAFDSWEKPPLPVYTQFYFFNVTNPEEILRGETPRVEEVGPYTYRELRNKANIQFGDNGTTISAVSNKAYVFERDQSVGDPKIDLIRTLNIPVLTVIEWSQVHFLREIIEAMLKAYQQKLFVTHTVDELLWGYKDEILSLIHVFRPDISPYFGLFYEKNGTNDGDYVFLTGEDSYLNFTKIVEWNGKTSLDWWITDKCNMINGTDGDSFHPLITKDEVLYVFPSDFCRSVYITFSDYESVQGLPAFRYKVPAEILANTSDNAGFCIPEGNCLGSGVLNVSICKNGAPIIMSFPHFYQADERFVSAIEGMHPNQEDHETFVDINPLTGIILKAAKRFQINIYVKKLDDFVETGDIRTMVFPVMYLNESVHIDKETASRLKSMINTT
modifications: biotin-labeled (EZ-Link Sulfo-NHS-LC-Biotin)
notes: also called biotin-labeled LIMP2
B6: Recombinant GBA (glucocerebrosidase; R&D Systems Cat. No. 7410-GH-010) (enzyme, UniProt P04062 40-536, looked up)
chain: T2 sequence (looked up)
modifications: biotin-labeled (EZ-Link Sulfo-NHS-LC-Biotin) in the solid phase binding assays; unlabeled in SPR
notes: also called GCase; biotin-labeled GBA

The target in assay [1] is HSP70 expressed from a plasmid in transfected 293T cells (UniProt P0DMV8 1-641). Kind of assay: co-IP from co-transfected 293T cells: IP anti-GFP, IB anti-HSP70. The source says:
(§1) FIG. 8 depicts that Pcgin/ND7 fragment of PGRN has binding motifs for GCase and HSP70. (A) Scheme of Pcgin amino acid structure and its deletion mutants. (B) Co-IP assays for examining the binding of Pcgin and its mutants to GCase and HSP70. 293T cells were transfected with plasmids encoding either GFP fused Pcgin or its mutants, together with plasmids encoding RFP fused GCase and HSP70, and the protein complexes were immunoprecipitated with GFP antibody and probed with RFP or HSP70 antibodies respectively. […] The result is representative of three independent experiments. (C) Structure and sequence of Pcgin/ND7 fragment of PGRN. […] Sequence of Pcgin (SEQ ID NO:4) is shown in the bottom panel. Linker regions and Gm E are highlighted in green and red, respectively. Binding sites of GCase, HSP70, and Sortilin are indicated.

The target in assay [2] is T1, Recombinant sortilin (R&D Systems Cat. …). Description: SPR, SensiQ Pioneer, sortilin immobilised, PGRN injected (OneStep). (Surface plasmon resonance follows binding to a sensor surface in real time, without labels.)
Assay [3] has as its target T2, RFP-fused GBA (encoded by pDsRed-GBA). Kind of assay: co-IP from co-transfected 293T cells: IP anti-GFP, IB anti-RFP.
From the text: as §1

In assay [4] the target is B6. Kind of assay: solid phase binding, Pcgin coated, biotin-labeled GCase, ELISA-based detection. Here is the method:
(§2) Pcgin was coated on a 96-well plate and incubated with biotin-labeled GCase, HSP70, and Sortilin (serving as a positive control) respectively. The direct binding was detected by ELISA-based method.
(§3) Pcgin was then expressed in bacteria and purified as a His-tagged protein. The purity was examined by Coomassie Blue staining and confirmed by Western blotting with His probe (FIG. 10). […] Although Pcgin retained GCase and HSP70 binding activity of PGRN, it lacked PGRN's oncogenic activity, including PGRN-activated oncogenic signaling and cell proliferation (data not shown).
Background: In an ELISA, binding on a coated surface is turned into a signal by an enzyme label.

Assay [5] deals with T1, Recombinant sortilin (R&D Systems Cat. …). Kind of assay: solid phase binding, Pcgin coated, biotin-labeled sortilin (positive control), ELISA-based detection. Here is the method: as §2, §3
Assay [6] deals with B2. Description: solid phase binding, PGRN coated, biotin-labeled LIMP2. The method, then: Solid phase binding: 0.1, 1, 2, and 5 μg/ml PGRN proteins were coated in 96-wells with triplicate wells in PBS for overnight. The plate was washed with 0.1% tween/PBS five times and then blocked with 2% BSA/PBS solution. Two μg BSA, LIMP2 and GBA protein were labeled with biotin followed the protocol of EZ-Link Sulfo-NHS-LC-Biotin and Biotinylation Kits (Thermo Scientific). Biotin-labeled LIMP2, GBA or BSA were added in the plate and incubate for 2 hours. Wash with 0.1% tween/PBS, and coated with streptavidin-HRP (1:2000 dilution) solution for 1 hour. After washing add t h e substrate and stop the reaction with […] H₂SO₄. Read result at UV 450 nm in plate reader.

Assay [7] concerns the target B2. Kind of assay: SPR, SensiQ Pioneer, GBA immobilised, PGRN injected (OneStep). Here is the method:
Surface Plasmon Resonance (SPR): All SPR experiments were done by SensiQ Technologies Inc. (Oklahoma City, Okla.) by using SensiQ Pioneer at a controlled analysis temperature of 25° C., and samples in the instrument sample racks were maintained at 18° C. The running buffer throughout the immobilization and the assay consisted of 10 mM HEPES, 150 mM NaCl, 0.005% Tween 20. Buffer pH was adjusted to pH 7.4, 6.5, 6.0 or 5.5 for individual runs, and for each pH the running buffer was used to prepare PGRN samples and sucrose diffusion standards.
The assay of PGRN was performed with a total of five buffer blank injections and two replicates of 200 nM PGRN, all of which were given a 1 hour dissociation time. The OneStep™ injection was used for this assay to determine kinetic rate constants and the equilibrium dissociation constant from a single gradient inject. Two injections of 3% sucrose in running buffer were performed to serve as a diffusion standard.
Data was analyzed using the QDat Analysis Software (SensiQ Technologies and BioLogic Software). All data were double referenced to a reference channel (channel 2) and buffer blanks. The average signal of the buffer blanks was used to subtract injection artifacts. Referenced SPR data from the analysis channels were model fit to ascertain ka, kd, and KD for the interactions.

Sequence of HSP70 expressed from a plasmid in transfected 293T cells (P0DMV8 whole entry, the tested form may be a part): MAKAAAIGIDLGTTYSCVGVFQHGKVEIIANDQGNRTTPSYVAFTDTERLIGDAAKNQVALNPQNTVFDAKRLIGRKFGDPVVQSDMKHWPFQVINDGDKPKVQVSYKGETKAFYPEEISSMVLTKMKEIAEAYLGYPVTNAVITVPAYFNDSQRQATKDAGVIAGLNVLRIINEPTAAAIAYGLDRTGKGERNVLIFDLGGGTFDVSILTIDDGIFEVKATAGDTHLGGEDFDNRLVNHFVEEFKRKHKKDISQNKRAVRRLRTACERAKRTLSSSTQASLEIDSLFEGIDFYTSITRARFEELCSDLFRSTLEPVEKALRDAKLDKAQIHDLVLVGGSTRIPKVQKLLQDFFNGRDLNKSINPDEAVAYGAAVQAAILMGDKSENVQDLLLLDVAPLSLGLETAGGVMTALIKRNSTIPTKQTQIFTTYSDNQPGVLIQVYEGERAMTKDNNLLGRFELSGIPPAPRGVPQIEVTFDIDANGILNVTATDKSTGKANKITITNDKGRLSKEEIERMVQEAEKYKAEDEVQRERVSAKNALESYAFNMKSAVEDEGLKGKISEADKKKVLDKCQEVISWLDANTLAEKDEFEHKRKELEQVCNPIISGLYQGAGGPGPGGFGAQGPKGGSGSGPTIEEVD

Consider B1, for which, in assay [1], the binding result was “no binding”.
A word on the Kd: it is the equilibrium constant for the complex coming apart. For the molecule B2, the Kd in assay [2] is 3.67 nM.
B3: the binding result in assay [3] was “no binding”.
With B4, the binding result in assay [4] and in assay [5] was “binds” each time.
Regarding B5, the binding result in assay [6] is reported as “no binding”.
As for B6, in assay [7], the Kd came to 0.71 nM.
